The values below are quoted from earlier work in PMC11260871.

Broadly, the Kd is a measure of binding affinity in units of concentration.

Bounds are passed on as bounds.

Some targets named below: laminin alpha2 (UniProt P24043); laminin alpha4 (UniProt Q16363); laminin alpha5 (UniProt O15230); laminin alpha1 (UniProt P25391); laminin gamma1 LEb (UniProt P11047).
Data set [1] deals with laminin gamma LN domain LN (UniProt P11047).

Chain of UniProt Q16363 (Q16363 25-1823): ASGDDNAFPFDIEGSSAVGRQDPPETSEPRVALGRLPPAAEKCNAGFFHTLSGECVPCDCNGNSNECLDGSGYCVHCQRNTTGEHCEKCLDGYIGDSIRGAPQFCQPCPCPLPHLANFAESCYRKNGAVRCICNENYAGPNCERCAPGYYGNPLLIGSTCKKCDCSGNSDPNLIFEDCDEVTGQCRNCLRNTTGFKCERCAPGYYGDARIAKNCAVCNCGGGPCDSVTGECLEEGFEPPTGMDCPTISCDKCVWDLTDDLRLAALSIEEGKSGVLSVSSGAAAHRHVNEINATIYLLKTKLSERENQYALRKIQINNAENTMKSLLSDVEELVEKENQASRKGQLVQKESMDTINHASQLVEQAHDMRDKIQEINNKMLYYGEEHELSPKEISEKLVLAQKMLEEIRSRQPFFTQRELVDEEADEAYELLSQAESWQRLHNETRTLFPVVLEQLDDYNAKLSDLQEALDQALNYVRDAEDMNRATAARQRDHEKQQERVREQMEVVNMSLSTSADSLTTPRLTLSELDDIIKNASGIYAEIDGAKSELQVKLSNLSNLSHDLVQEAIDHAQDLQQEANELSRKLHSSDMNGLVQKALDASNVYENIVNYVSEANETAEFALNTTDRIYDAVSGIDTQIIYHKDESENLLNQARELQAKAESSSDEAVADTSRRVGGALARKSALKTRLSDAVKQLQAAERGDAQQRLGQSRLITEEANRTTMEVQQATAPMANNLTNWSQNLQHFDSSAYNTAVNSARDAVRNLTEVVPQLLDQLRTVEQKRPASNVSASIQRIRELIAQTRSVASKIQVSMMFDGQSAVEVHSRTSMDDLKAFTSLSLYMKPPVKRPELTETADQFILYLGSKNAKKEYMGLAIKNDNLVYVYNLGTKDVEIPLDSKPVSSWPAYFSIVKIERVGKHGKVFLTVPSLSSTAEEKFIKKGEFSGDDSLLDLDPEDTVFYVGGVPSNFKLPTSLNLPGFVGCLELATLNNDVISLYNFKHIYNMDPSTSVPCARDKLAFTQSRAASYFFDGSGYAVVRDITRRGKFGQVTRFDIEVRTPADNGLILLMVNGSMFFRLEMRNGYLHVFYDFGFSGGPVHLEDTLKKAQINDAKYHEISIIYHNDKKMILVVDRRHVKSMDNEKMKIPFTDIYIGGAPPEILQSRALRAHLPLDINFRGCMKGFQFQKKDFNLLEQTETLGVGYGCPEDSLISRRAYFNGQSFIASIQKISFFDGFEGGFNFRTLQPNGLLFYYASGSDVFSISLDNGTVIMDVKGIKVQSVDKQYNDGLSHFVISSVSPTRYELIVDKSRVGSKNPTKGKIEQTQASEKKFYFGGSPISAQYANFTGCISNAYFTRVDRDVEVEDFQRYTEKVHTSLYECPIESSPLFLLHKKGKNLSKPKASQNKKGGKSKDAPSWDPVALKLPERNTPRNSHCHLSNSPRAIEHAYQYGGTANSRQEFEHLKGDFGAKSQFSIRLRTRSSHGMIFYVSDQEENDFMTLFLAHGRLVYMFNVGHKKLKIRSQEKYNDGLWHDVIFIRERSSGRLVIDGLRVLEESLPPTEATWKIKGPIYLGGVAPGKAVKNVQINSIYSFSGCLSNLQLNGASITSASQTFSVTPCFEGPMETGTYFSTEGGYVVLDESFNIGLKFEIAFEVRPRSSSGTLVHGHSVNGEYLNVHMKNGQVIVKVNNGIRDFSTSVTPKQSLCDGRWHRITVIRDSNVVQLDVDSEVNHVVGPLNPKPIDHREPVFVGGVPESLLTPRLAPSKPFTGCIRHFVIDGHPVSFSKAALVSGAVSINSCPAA
Chain of UniProt P25391 (P25391 18-3075): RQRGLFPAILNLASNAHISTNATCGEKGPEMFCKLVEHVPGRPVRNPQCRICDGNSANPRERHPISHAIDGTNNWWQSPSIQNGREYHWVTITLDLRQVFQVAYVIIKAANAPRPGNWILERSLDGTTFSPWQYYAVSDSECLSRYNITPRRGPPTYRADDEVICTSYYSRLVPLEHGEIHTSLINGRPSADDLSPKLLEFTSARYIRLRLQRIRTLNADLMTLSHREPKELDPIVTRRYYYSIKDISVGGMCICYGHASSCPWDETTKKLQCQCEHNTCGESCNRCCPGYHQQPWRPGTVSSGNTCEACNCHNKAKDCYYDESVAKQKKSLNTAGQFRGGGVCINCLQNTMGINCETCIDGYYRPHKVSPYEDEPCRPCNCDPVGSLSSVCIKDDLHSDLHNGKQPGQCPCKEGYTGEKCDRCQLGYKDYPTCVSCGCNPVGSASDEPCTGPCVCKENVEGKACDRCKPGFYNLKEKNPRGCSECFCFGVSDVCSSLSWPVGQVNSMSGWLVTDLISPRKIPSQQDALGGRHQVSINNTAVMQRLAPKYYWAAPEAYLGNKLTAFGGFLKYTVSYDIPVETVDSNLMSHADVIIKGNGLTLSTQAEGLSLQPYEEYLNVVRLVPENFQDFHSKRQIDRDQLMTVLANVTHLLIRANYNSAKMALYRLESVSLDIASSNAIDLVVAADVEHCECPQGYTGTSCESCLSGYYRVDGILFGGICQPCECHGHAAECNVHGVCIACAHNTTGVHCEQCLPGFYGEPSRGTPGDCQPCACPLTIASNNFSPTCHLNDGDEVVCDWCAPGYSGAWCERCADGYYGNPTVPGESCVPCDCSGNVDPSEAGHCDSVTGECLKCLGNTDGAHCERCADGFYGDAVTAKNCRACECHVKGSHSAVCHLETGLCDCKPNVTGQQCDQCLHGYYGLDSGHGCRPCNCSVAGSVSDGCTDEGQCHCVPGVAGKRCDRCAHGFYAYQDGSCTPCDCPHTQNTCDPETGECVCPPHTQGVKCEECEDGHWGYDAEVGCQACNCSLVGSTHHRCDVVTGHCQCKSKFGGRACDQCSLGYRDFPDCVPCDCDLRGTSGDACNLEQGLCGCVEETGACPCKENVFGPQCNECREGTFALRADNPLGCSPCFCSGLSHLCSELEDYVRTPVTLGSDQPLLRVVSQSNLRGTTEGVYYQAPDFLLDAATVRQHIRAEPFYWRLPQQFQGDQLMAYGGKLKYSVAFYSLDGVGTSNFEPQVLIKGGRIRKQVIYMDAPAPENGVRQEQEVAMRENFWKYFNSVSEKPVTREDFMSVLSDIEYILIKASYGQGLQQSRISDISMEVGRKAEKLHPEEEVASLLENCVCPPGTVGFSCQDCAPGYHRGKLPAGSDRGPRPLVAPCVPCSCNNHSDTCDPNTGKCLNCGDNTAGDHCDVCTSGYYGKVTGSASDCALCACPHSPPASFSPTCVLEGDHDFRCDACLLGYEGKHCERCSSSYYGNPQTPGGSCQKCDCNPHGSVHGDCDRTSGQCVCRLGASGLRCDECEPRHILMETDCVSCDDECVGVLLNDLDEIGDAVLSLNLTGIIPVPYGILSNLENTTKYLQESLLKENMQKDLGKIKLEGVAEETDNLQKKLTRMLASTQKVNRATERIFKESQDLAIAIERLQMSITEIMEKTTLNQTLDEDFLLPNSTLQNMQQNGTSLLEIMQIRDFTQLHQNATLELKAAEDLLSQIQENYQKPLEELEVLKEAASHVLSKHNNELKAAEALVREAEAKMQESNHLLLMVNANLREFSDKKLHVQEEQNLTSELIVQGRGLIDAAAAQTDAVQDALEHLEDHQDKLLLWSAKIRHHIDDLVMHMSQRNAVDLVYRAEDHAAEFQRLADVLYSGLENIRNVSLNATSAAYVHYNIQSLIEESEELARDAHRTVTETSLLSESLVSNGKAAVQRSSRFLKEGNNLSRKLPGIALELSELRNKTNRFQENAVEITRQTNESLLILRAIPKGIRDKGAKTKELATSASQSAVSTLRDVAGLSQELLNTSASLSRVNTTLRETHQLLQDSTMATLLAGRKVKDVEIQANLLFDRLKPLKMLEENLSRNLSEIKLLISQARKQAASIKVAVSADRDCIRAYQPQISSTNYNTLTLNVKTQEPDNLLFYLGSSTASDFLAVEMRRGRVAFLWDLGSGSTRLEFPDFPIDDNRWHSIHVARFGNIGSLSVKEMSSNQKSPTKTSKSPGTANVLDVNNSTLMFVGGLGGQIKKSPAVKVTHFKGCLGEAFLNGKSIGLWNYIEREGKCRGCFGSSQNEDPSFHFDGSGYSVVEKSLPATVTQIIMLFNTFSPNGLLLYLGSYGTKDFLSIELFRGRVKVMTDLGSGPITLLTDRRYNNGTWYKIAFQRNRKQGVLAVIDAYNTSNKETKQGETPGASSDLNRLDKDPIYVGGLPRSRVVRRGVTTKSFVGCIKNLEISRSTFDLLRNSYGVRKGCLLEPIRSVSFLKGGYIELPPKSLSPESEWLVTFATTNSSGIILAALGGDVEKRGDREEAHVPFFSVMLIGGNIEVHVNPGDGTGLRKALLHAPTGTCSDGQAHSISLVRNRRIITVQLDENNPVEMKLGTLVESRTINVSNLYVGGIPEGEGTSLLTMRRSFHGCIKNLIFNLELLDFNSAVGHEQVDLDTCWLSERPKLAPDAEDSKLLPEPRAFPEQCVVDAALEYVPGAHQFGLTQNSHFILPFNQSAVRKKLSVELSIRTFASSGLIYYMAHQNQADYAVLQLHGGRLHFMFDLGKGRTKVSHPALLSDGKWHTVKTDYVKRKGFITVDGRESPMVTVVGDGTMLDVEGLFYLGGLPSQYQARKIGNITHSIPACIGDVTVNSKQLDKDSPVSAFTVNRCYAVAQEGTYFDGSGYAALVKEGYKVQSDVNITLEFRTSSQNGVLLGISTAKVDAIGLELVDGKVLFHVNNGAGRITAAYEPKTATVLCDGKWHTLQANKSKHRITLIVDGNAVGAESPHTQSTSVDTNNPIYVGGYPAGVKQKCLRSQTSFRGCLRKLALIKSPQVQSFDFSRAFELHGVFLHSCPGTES

As to “alpha-dystroglycan (from UniProt Q14118)”, the Kd with laminin alpha2 is 43 nM; in the data set with laminin alpha4, greater than 1000 nM; with laminin alpha5, 150 nM; in the data set with laminin alpha1 it was 20 nM.
With “laminin beta LN domain LN (from UniProt P07942)”, in data set [1], the Kd is 18000 nM.
Turning to nidogen-1 G3 (from UniProt P14543), the Kd with laminin gamma1 LEb was less than 1 nM.
